# Patent US20030171537A1 (Bayer, published 2003)
# Non-standard residues stand in square brackets, D forms with d.
# Biological target: human wild-type p53 (full-length, in vitro translated from plasmid pGEMhump53wt) (human, UniProt P04637 1-393)
# Assay: cell-based or functional assay
# human wild-type p53 (full-length, in vitro translated from plasmid pGEMhump53wt), sequence (P04637 whole entry): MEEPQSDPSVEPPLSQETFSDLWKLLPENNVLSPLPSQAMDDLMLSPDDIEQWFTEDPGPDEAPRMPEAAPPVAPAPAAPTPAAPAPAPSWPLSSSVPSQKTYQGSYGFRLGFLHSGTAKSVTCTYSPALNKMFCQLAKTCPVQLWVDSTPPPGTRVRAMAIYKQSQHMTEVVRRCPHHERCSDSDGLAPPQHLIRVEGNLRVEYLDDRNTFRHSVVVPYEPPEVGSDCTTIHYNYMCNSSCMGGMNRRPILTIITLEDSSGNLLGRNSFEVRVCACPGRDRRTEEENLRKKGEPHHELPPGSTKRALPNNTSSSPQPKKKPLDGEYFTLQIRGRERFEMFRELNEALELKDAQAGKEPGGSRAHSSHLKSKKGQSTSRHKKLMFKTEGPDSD
binder,measurement,value
cyclo(SRHKK[dA]) (SMILES C[C@H]1NC(=O)[C@H](CCCCN)NC(=O)[C@H](CCCCN)NC(=O)[C@H](Cc2c[nH]cn2)NC(=O)[C@H](CCCNC(=N)N)NC(=O)[C@H](CO)NC1=O) [cyclic peptide c[SRHKKa]],"activation of p53 DNA binding (gel shift), relative to 0.05 mM peptide p53p363-373",~2 times
